The source of these data is patent US20240368668A1, “SUBSTRATES AND BIOMARKERS OF ADAMTS7” (The Broad Institute, Inc., priority 2021, published 2024).

Square brackets hold non-standard residues; d marks the D form. Ends that are not written are not given here. deamidated = deamidated asparagine; Met(O) = CS(=O)CC[C@H](N)C(=O)O

For the assay, the target named is T1, mouse ADAMTS7 (Mus musculus, UniProt Q68SA9, E373Q).
T1 construct: Full-length mouse Adamts7 1-1857 (Uniprot Q68SA9, WT or E373Q catalytic mutant); expressed in transfected cells; host or cells: Human Coronary Artery Smooth Muscle Cells (HCA-SMC, Lonza), adenovirus 50 MOI
T1 sequence (Q68SA9 221-1657 E373Q): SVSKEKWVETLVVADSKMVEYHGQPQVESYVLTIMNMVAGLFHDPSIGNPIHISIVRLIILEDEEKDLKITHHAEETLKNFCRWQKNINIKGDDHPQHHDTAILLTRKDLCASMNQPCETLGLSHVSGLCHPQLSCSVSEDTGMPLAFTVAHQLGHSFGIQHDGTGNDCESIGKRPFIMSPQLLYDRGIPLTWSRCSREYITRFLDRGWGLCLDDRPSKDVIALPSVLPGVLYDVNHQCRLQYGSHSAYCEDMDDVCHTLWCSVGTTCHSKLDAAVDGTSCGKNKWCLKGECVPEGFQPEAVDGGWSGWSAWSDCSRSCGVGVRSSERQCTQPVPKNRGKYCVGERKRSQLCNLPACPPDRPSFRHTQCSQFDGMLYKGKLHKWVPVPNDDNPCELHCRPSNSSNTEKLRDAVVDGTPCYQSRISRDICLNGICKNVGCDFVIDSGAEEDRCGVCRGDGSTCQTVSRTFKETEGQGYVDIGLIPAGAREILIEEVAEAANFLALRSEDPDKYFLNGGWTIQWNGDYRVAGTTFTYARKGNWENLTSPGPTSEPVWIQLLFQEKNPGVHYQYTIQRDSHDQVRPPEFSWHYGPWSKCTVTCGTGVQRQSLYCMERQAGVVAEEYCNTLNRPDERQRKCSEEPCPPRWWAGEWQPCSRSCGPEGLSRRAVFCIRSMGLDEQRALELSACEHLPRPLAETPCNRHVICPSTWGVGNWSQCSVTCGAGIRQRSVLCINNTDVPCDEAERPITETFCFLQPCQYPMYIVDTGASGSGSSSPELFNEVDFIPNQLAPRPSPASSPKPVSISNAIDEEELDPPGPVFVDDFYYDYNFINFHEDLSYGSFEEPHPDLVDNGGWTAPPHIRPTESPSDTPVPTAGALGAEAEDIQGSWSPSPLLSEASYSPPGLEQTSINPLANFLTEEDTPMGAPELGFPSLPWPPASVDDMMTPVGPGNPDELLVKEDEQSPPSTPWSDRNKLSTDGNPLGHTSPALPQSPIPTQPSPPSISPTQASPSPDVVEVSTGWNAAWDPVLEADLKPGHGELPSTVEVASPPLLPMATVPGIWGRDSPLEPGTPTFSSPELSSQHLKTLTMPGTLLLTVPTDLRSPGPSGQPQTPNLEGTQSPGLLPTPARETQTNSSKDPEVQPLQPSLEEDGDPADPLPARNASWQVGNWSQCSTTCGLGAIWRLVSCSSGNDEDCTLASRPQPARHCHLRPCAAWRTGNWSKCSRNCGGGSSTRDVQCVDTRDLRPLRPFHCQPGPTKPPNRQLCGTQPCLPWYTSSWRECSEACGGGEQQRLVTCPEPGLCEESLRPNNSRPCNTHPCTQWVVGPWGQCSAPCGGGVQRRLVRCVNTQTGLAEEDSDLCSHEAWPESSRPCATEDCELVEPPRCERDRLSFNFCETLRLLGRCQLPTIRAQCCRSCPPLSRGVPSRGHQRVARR
Nature of the assay: TMT10 TAILS N-terminomics, SMC1 experiment (Ad-mADAMTS7 WT vs EQ vs Luc, technical replicates, trypsin digest). The format is cell-based. The note with it: TAILS neo-N-terminal peptide abundance; log fold change, Ad-mADAMTS7 EQ over Luc. The method, boiled down: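 Full-length mouse ADAMTS7 (WT or E373Q mutant, C-terminal 3xFLAG) or luciferase was transduced via adenovirus, 50 MOI, into HCA-SMC (SMC1, SMC2) or HUVEC. SMC1: pooled media, technical triplicates 400 ug; SMC2: process triplicates 300 ug; HUVEC: process triplicates 200 ug, bFGF2 10 ng/ml.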
For the substance “CDC37_43 (FQKEKEELDR; listed as Homo sapiens)”, the logFC.mEQ.over.Luc is −0.12.
For “CDH11_467 (HQEAKVPVAIR; listed as Homo sapiens)” the value was −0.03; for “CLEC11A_50 (HLQEALGLPAGR; listed as Homo sapiens)”, −0.34.
For “COL1A2_80 (QYDGKGVGLGPGPMGLMGPR; listed as Homo sapiens)” the value was 0.19; for “COL1A2_91 (GPMGLMGPR; listed as Homo sapiens)”, −0.07.
Then “COL1A2_113 (FQGPAGEPGEPGQTGPAGAR; listed as Homo sapiens)”, with −0.61.
In the case of “COL1A2_270 (VGNAGPAGPAGPR; listed as Homo sapiens)”, the logFC.mEQ.over.Luc came to 0.70.
Then “COL1A2_305 (LTGAKGAAGLPGVAGAPGLPGPR; listed as Homo sapiens)”, with −0.16; and “COL1A2_389 (SAGPPGPPGLR; listed as Homo sapiens)”, with 0.39; and “COL1A2_425 (ASGPAGVR; listed as Homo sapiens)”, with −0.17.
“COL1A2_630 (VGTAGPSGPSGLPGER; listed as Homo sapiens)” gave a logFC.mEQ.over.Luc of −0.27.
Substance “COL1A2_681 (VGAPGPAGATGDR; listed as Homo sapiens)” came in with a logFC.mEQ.over.Luc of −0.34.
For the substance “COL1A2_731 (AAGQPGAKGER; listed as Homo sapiens)”, the logFC.mEQ.over.Luc is −0.18.
Substance “COL1A2_866 (LLGAPGILGLPGSR; listed as Homo sapiens)” showed a logFC.mEQ.over.Luc of −0.24.
Then “COL1A2_960 (AGAPGPHGPVGPAGKHGNR; listed as Homo sapiens)”, with −0.35.
For “COL1A2_1028 (LQGLPGIAGHHGDQGAPGSVGPAGPR; listed as Homo sapiens)” the value was −0.28; for “COL1A2_1037 (HHGDQGAPGSVGPAGPR; listed as Homo sapiens)”, −0.79.
For “COL1A2_1127 (SLRPKDYEVDATLKSLNNQIETLLTPEGSR; listed as Homo sapiens)” the value was −0.45; for “COL4A2_71 (YNGPPGLQGFPGLQGR; listed as Homo sapiens)”, −0.37; for “COL4A2_172 (YALPKEER; listed as Homo sapiens)”, 0.76.
In the case of “COL5A1_544 (SQAQAILQQAR; listed as Homo sapiens)”, the logFC.mEQ.over.Luc is −0.21.
Then “COL8A1_90 (MKEIQPAPR; listed as Homo sapiens)”, with −0.25; and “COL18A1_1505 (LQPPVVQLHDSNPYPR; listed as Homo sapiens)”, with −0.01; and “ECM1_43 (YAAPPSPPLSR; listed as Homo sapiens)”, with −0.04.
Then “LTBP2_1602 (EAGVHFR; listed as Homo sapiens)”, with 0.64.
Then “MAN2A1_51 (LQEKIDHLER; listed as Homo sapiens)”, with 0.18; and “MAP1B_1065 (LTTPTKQLGAQSPGR; listed as Homo sapiens)”, with −0.20.
For “MAP4_815 (AVASTGPSSR; listed as Homo sapiens)”, the logFC.mEQ.over.Luc is 0.10.
Then “MAP4_816 (VASTGPSSR; listed as Homo sapiens)”, with −0.18.
Then “MGAT4B_28 (LSGQKGDVVDVYQR; listed as Homo sapiens)”, with −0.23; and “MMP1_24 (LETQEQDVDLVQKYLEKYYNLKN(deamidated)DGR; listed as Homo sapiens)”, with −0.08.
“NID2_291 (HSSVPLGR; listed as Homo sapiens)”: the logFC.mEQ.over.Luc is reported as −0.08.
Then “NID2_374 (VGGPDLKGQVEPWDER; listed as Homo sapiens)”, with −0.14; and “NID2_467 (LEDNIGSNTEVFTYNAANKETCEHNHR; listed as Homo sapiens)”, with −0.09; and “NID2_951 (YAYPGAR; listed as Homo sapiens)”, with −0.58.
For “NUCB1_228 (LKEVWEELDGLDPNR; listed as Homo sapiens)” the value was 0.07.
Substance “NUCB1_317 (FLASTQR; listed as Homo sapiens)” had a logFC.mEQ.over.Luc of −0.11.
The substance “NUCB1_389 (LQQAVLHMEQR; listed as Homo sapiens)” returned a logFC.mEQ.over.Luc of 0.15.
Then “OS9_54 ([code q]SQSSDVVIVSSKYKQR; also: modified N-terminal Gln; listed as Homo sapiens)”, with −0.14; and “OS9_55 (SQSSDVVIVSSKYKQR; listed as Homo sapiens)”, with −0.06; and “PAPPA_41 (AAGPATCATR; listed as Homo sapiens)”, with 0.35.
As to “PDLIM4_104 (IDPEIQDGSPTTSR; listed as Homo sapiens)”, the logFC.mEQ.over.Luc was −0.13.
For “POLR3G_88 (LFCSHWSHIPGFK; listed as Homo sapiens)” the value was 0.00; for “POSTN_413 (FSDDTLSMDQR; listed as Homo sapiens)”, −0.02.
For “POSTN_754 (IITGPEIKYTR; listed as Homo sapiens)” the value was 0.10; for “POSTN_790 (FIEGGDGHLFEDEEIKR; listed as Homo sapiens)”, −0.31.
“POSTN_807 (LLQGDTPVR; listed as Homo sapiens)” registered a logFC.mEQ.over.Luc of −0.07.
In the case of “PPP1R18_295 (LSETLTR; listed as Homo sapiens)”, the logFC.mEQ.over.Luc is −0.08.
Then “PSAP_171 (F[Met(O)]ANIPLLLYPQDGPR; listed as Homo sapiens)”, with 0.10.
For “PXDN_1341 (SYQEDKPTKKTR; listed as Homo sapiens)” the value was 1.36; for “PXDN_1393 (QKTITDLR; listed as Homo sapiens)”, 0.10.
